pKd: −log10 of the molar value.

In this data set the target is Spike S1 & S2 ECD (SARS-CoV-2) (UniProt P0DTC2). The data set is described as follows: filter.
The mark [1] stands for this setting: Y=Tyr-dU, p=Nap-dC, SB18T0.01, 37 C.

Regarding ANNANGNGNNNGANNGNNNGGANG [26874-29_25], under setting [1], the pKd – broadly, −log10 of the Kd, conventionally taken in molar units – is 8.74.

On to ANNANGNGNNNGANNGNNNGGANGG [26874-29_23], for which the negative logarithm of the Kd (pKd) under setting [1] was 8.80.

As for “GGANANNANGNGNNNGANNGNNNGGANG [26874-29_21]”, under setting [1], the pKd was 8.66.

As to “GGGACANNANGNGNNNGANNGNNNGGANG [26874-29_127]”, the pKd (c3 (not defined) at 5, other dU Tyr-dU, dC Nap-dC, SB18T0.01, 37 C) was 9.55.

Under “ThdU at 5, other dU Tyr-dU, dC Nap-dC, SB18T0.01, 37 C”, “GGGAHANNANGNGNNNGANNGNNNGGANG [26874-29_96]” showed a pKd of 9.57.

In the case of “GGGANANHANGNGNNNGANNGNNNGGANG [26874-29_98]”, the pKd (ThdU at 8, other dU Tyr-dU, dC Nap-dC, SB18T0.01, 37 C) was 9.66.

In the case of “GGGANANNANGNGHNNGANNGNNNGGANG [26874-29_100]”, the pKd (ThdU at 14 as printed (same as _102; position 10 probably meant), other dU Tyr-dU, dC Nap-dC, SB18T0.01, 37 C) was 9.31.

In turn, “GGGANANNANGNGHNNGANNGNNNGGANG [26874-29_102]” had a negative logarithm of the Kd (pKd) (ThdU at 14, other dU Tyr-dU, dC Nap-dC, SB18T0.01, 37 C) of 9.35.

As to “GGGANANNANGNGNNNGANNGNHNGGANG [26874-29_104]”, the pKd (ThdU at 23, other dU Tyr-dU, dC Nap-dC, SB18T0.01, 37 C) is 9.23.

Regarding “GGGANANNANGNGNNNGANNGNNNGGANG [26874-29_47]”, the pKd (NapdU at 5, other dU Tyr-dU, dC Nap-dC, SB18T0.01, 37 C) was 9.51.

With “GGGANANNANGNGNNNGANNGNNNGGANG [26874-29_48]”, for the setting “FBndU at 8, other dU Tyr-dU, dC Nap-dC, SB18T0.01, 37 C”, the negative logarithm of the Kd (pKd) is 9.59.

Take “GGGANANNANGNGNNNGANNGNNNGGANG [26874-29_49]”: the pKd (NapdU at 8, other dU Tyr-dU, dC Nap-dC, SB18T0.01, 37 C) was 9.40.

For “GGGANANNANGNGNNNGANNGNNNGGANG [26874-29_50]”, the pKd (FBndU at 10, other dU Tyr-dU, dC Nap-dC, SB18T0.01, 37 C) is 9.51.

“GGGANANNANGNGNNNGANNGNNNGGANG [26874-29_51]” had a pKd (NapdU at 10, other dU Tyr-dU, dC Nap-dC, SB18T0.01, 37 C) of 9.44.

As to “GGGANANNANGNGNNNGANNGNNNGGANG [26874-29_52]”, under “Y=Tyr-dU, p=Nap-dC, position 14 FBn-dU, Kd/Kd_20 0.27”, the pKd is 9.96.

In turn, “GGGANANNANGNGNNNGANNGNNNGGANG [26874-29_53]” had a pKd (NapdU at 14, other dU Tyr-dU, dC Nap-dC, SB18T0.01, 37 C) of 9.70.

For the setting “FBndU at 23, other dU Tyr-dU, dC Nap-dC, SB18T0.01, 37 C”, “GGGANANNANGNGNNNGANNGNNNGGANG [26874-29_54]” showed a pKd of 9.68.

For “GGGANANNANGNGNNNGANNGNNNGGANG [26874-29_55]”, for the setting “NapdU at 23, other dU Tyr-dU, dC Nap-dC, SB18T0.01, 37 C”, the pKd is 9.60.

“GGGANANNANGNGNNNGANNGNNNGGANG [26874-29_56]”: the pKd (TrpdU at 5, other dU Tyr-dU, dC Nap-dC, SB18T0.01, 37 C) was 9.27.

For “GGGANANNANGNGNNNGANNGNNNGGANG [26874-29_57]”, the pKd (BndU at 5, other dU Tyr-dU, dC Nap-dC, SB18T0.01, 37 C) is 9.68.

On to “GGGANANNANGNGNNNGANNGNNNGGANG [26874-29_58]”, for which, where the note is “TrpdU at 8, other dU Tyr-dU, dC Nap-dC, SB18T0.01, 37 C”, the pKd is 9.57.

On to “GGGANANNANGNGNNNGANNGNNNGGANG [26874-29_59]”, for which the pKd (BndU at 8, other dU Tyr-dU, dC Nap-dC, SB18T0.01, 37 C) was 9.74.

“GGGANANNANGNGNNNGANNGNNNGGANG [26874-29_60]”: the pKd (Y=Tyr-dU, p=Nap-dC, position 10 Trp-dU, Kd/Kd_20 0.24) is 10.01.

For the setting “BndU at 10, other dU Tyr-dU, dC Nap-dC, SB18T0.01, 37 C”, “GGGANANNANGNGNNNGANNGNNNGGANG [26874-29_61]” showed a pKd of 9.51.

Regarding “GGGANANNANGNGNNNGANNGNNNGGANG [26874-29_62]”, the pKd (Y=Tyr-dU, p=Nap-dC, position 14 Trp-dU, Kd/Kd_20 0.30) is 9.89.

Regarding “GGGANANNANGNGNNNGANNGNNNGGANG [26874-29_63]”, the pKd (BndU at 14, other dU Tyr-dU, dC Nap-dC, SB18T0.01, 37 C) was 9.80.

The sequence “GGGANANNANGNGNNNGANNGNNNGGANG [26874-29_64]” showed a pKd (TrpdU at 23, other dU Tyr-dU, dC Nap-dC, SB18T0.01, 37 C) of 9.57.

Sequence “GGGANANNANGNGNNNGANNGNNNGGANG [26874-29_65]” had a pKd (BndU at 23, other dU Tyr-dU, dC Nap-dC, SB18T0.01, 37 C) of 9.55.

In turn, “GGGANANNANGNGNNNGANNGNNNGGANG [26874-29_66]” gave a pKd (PBndU at 5, other dU Tyr-dU, dC Nap-dC, SB18T0.01, 37 C) of 9.72.

Sequence “GGGANANNANGNGNNNGANNGNNNGGANG [26874-29_68]” had a pKd (PBndU at 8, other dU Tyr-dU, dC Nap-dC, SB18T0.01, 37 C) of 9.68.

Take “GGGANANNANGNGNNNGANNGNNNGGANG [26874-29_70]”: the pKd (PBndU at 10 (printed sequence lacks Y at 10, F^ in place), other dU Tyr-dU, dC Nap-dC, SB18T0.01, 37 C) was 9.70.

Where the note is “Y=Tyr-dU, p=Nap-dC, position 14 PBn-dU, Kd/Kd_20 0.33”, “GGGANANNANGNGNNNGANNGNNNGGANG [26874-29_72]” showed a pKd of 9.85.

The sequence “GGGANANNANGNGNNNGANNGNNNGGANG [26874-29_74]” had a pKd (PBndU at 23, other dU Tyr-dU, dC Nap-dC, low plateau, very faint spots) of 9.34.

Under “NEdU at 5, other dU Tyr-dU, dC Nap-dC, SB18T0.01, 37 C”, “GGGANANNANGNGNNNGANNGNNNGGANG [26874-29_76]” showed a pKd of 9.34.

“GGGANANNANGNGNNNGANNGNNNGGANG [26874-29_77]” showed a pKd (Y=Tyr-dU, p=Nap-dC, position 5 PE-dU, Kd/Kd_20 0.32) of 9.89.

The sequence “GGGANANNANGNGNNNGANNGNNNGGANG [26874-29_78]” gave a negative logarithm of the Kd (pKd) (NEdU at 8, other dU Tyr-dU, dC Nap-dC, SB18T0.01, 37 C) of 9.62.

“GGGANANNANGNGNNNGANNGNNNGGANG [26874-29_79]”: the pKd (PEdU at 8, other dU Tyr-dU, dC Nap-dC, SB18T0.01, 37 C) is 9.77.

Take “GGGANANNANGNGNNNGANNGNNNGGANG [26874-29_80]”: the pKd (NEdU at 10, other dU Tyr-dU, dC Nap-dC, SB18T0.01, 37 C) was 9.80.

As for “GGGANANNANGNGNNNGANNGNNNGGANG [26874-29_81]”, where the note is “PEdU at 10, other dU Tyr-dU, dC Nap-dC, SB18T0.01, 37 C”, the pKd is 9.80.

Where the note is “NEdU at 14, other dU Tyr-dU, dC Nap-dC, SB18T0.01, 37 C”, “GGGANANNANGNGNNNGANNGNNNGGANG [26874-29_82]” showed a pKd of 9.74.

“GGGANANNANGNGNNNGANNGNNNGGANG [26874-29_83]” gave a pKd (PEdU at 14, other dU Tyr-dU, dC Nap-dC, SB18T0.01, 37 C) of 9.72.

Sequence “GGGANANNANGNGNNNGANNGNNNGGANG [26874-29_84]” showed a pKd (NEdU at 23, other dU Tyr-dU, dC Nap-dC, SB18T0.01, 37 C) of 9.36.

For the sequence “GGGANANNANGNGNNNGANNGNNNGGANG [26874-29_85]”, under “PEdU at 23, other dU Tyr-dU, dC Nap-dC, low plateau”, the negative-log Kd (pKd) is 9.54.

For the sequence “GGGANANNANGNGNNNGANNGNNNGGANG [26874-29_86]”, the pKd (BFdU at 5, other dU Tyr-dU, dC Nap-dC, SB18T0.01, 37 C) was 9.68.

On to “GGGANANNANGNGNNNGANNGNNNGGANG [26874-29_87]”, for which the pKd (PPdU at 5, other dU Tyr-dU, dC Nap-dC, SB18T0.01, 37 C) was 9.60.

Take “GGGANANNANGNGNNNGANNGNNNGGANG [26874-29_88]”: the pKd (BFdU at 8, other dU Tyr-dU, dC Nap-dC, SB18T0.01, 37 C) is 9.72.

With “GGGANANNANGNGNNNGANNGNNNGGANG [26874-29_89]”, the pKd (PPdU at 8, other dU Tyr-dU, dC Nap-dC, SB18T0.01, 37 C) is 9.70.

In turn, “GGGANANNANGNGNNNGANNGNNNGGANG [26874-29_90]” had a negative-log Kd (pKd) (Y=Tyr-dU, p=Nap-dC, position 10 BF-dU, Kd/Kd_20 0.33) of 9.85.

In turn, “GGGANANNANGNGNNNGANNGNNNGGANG [26874-29_91]” had a pKd (BFdU at 14 (Table 6B says PPdU), other dU Tyr-dU, dC Nap-dC, SB18T0.01, 37 C) of 9.77.

“GGGANANNANGNGNNNGANNGNNNGGANG [26874-29_92]” had a pKd (PPdU at 10 (Table 6B says BFdU), other dU Tyr-dU, dC Nap-dC, SB18T0.01, 37 C) of 9.74.

Under “PPdU at 14, other dU Tyr-dU, dC Nap-dC, SB18T0.01, 37 C”, “GGGANANNANGNGNNNGANNGNNNGGANG [26874-29_93]” had a negative logarithm of the Kd (pKd) of 9.62.

Turning to “GGGANANNANGNGNNNGANNGNNNGGANG [26874-29_94]”, the pKd (BFdU at 23, other dU Tyr-dU, dC Nap-dC, SB18T0.01, 37 C) is 9.32.

Where the note is “PPdU at 23, other dU Tyr-dU, dC Nap-dC, SB18T0.01, 37 C”, “GGGANANNANGNGNNNGANNGNNNGGANG [26874-29_95]” gave a pKd of 9.38.

For the setting “ThrdU at 5, other dU Tyr-dU, dC Nap-dC, SB18T0.01, 37 C”, “GGGANANNANGNGNNNGANNGNNNGGANG [26874-29_97]” showed a pKd of 9.54.

“GGGANANNANGNGNNNGANNGNNNGGANG [26874-29_99]” gave a negative logarithm of the Kd (pKd) (ThrdU at 8, other dU Tyr-dU, dC Nap-dC, SB18T0.01, 37 C) of 9.62.

For the sequence “GGGANANNANGNGNNNGANNGNNNGGANG [26874-29_101]”, the pKd (ThrdU at 10, other dU Tyr-dU, dC Nap-dC, SB18T0.01, 37 C) is 9.44.

With “GGGANANNANGNGNNNGANNGNNNGGANG [26874-29_103]”, under “ThrdU at 14, other dU Tyr-dU, dC Nap-dC, SB18T0.01, 37 C”, the pKd was 9.31.

Regarding “GGGANANNANGNGNNNGANNGNNNGGANG [26874-29_105]”, where the note is “ThrdU at 23, other dU Tyr-dU, dC Nap-dC, SB18T0.01, 37 C”, the pKd was 9.10.

As for “GGGANANNANGNGNNNGANNGNNNGGANG [26874-29_106]”, the pKd (MOEdU at 5, other dU Tyr-dU, dC Nap-dC, SB18T0.01, 37 C) was 9.18.

For the origin of these results see US20240218374.
